This test concerns the target T1, Elongin BC complex (wild type rat Elongin B and C) (rat, UniProt P62870).
T1 chain 1: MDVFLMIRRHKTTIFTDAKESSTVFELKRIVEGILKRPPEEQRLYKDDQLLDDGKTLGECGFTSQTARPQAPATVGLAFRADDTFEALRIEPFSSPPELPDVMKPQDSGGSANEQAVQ
T1 chain 2: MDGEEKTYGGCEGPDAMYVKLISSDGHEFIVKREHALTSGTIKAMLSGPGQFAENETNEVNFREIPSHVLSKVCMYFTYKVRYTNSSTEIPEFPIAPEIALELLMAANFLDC
The test can be described thus: refolded with wild type Elongin B and C; TSK SP-NPR HPLC, SDS-PAGE, silver staining.

B1: Elongin A deletion mutant A(1-535) (other)
chain: MAAESALQVVEKLQARLAANPDPKKLLKYLKKLSVLPITVDILVETGVGKTVNSFRKHEQVGNFARDLVAQWKKLVPVERNNEAEDQDFEKSNSRKRPRDVPQQEEEAEGNYQESWQASGSQPYSPEHRQKKHRKLPELERPHKVAHGHERRDERKRCHKVSPPYSSDPESSDYGHVQSPPPSSPHQMYTDLSRSPEMDQEPIVSHPKPGKVHSNTFQDRLGVSHLGEHQGKGAVSQNKPHKSSHKEKRPVDARGDEKSSVMGREKSHKASSKEESRRLLSEDSAKEKLPSSVVKKEKDREGNSLKKKLSPALDVASDNHFKKPKHKDSEKIKSDKNKQSVDSVDSGRGTGDPLPRAKDKVPNNLKAQEGKVRTNSDRKSPGSLPKVEEMDMDDEFEQPTMSFESYLSYDQPRKKKKKVVKTSGTALGEKGLKKKDSKSTSKNLNSAQKLPKANENKSDKLQPAGAEPTRPRKVPTDVLPALPDIPLPAIQTNYRPLPSLELISSFQPKRKAFSSPQEEEEAGFTGRRMNSKMQV
For B1, the binding result is “no binding”.

B2: Elongin A point mutant L550S (other)
chain: MAAESALQVVEKLQARLAANPDPKKLLKYLKKLSVLPITVDILVETGVGKTVNSFRKHEQVGNFARDLVAQWKKLVPVERNNEAEDQDFEKSNSRKRPRDVPQQEEEAEGNYQESWQASGSQPYSPEHRQKKHRKLPELERPHKVAHGHERRDERKRCHKVSPPYSSDPESSDYGHVQSPPPSSPHQMYTDLSRSPEMDQEPIVSHPKPGKVHSNTFQDRLGVSHLGEHQGKGAVSQNKPHKSSHKEKRPVDARGDEKSSVMGREKSHKASSKEESRRLLSEDSAKEKLPSSVVKKEKDREGNSLKKKLSPALDVASDNHFKKPKHKDSEKIKSDKNKQSVDSVDSGRGTGDPLPRAKDKVPNNLKAQEGKVRTNSDRKSPGSLPKVEEMDMDDEFEQPTMSFESYLSYDQPRKKKKKVVKTSGTALGEKGLKKKDSKSTSKNLNSAQKLPKANENKSDKLQPAGAEPTRPRKVPTDVLPALPDIPLPAIQTNYRPLPSLELISSFQPKRKAFSSPQEEEEAGFTGRRMNSKMQVYSGSKCAYLPKMMTSHQQCIRVLKNNIDSIFEVGGVPYSVLEPVLERCTPDQLYRIEECNHVLIEETDQLWKVHCHRDFKEERPEEYESWREMYLRLQDAREQRLRLLTNNIRSAHANKPKGRQAKMAFVNSVAKPPRDVRRRQEKFGTGGAAVPEKVRIKPAPYTTGSSHVPASNSSSSFHSSPEELAYEGPSTSSAHLAPVASSSVSYDPRKPAVKKIAPMMAKTIKAFKNRFSRR
In the case of B2, the binding result is listed as “no binding”.

B3: Elongin A internal deletion mutant Δ546-565 (other)
chain: MAAESALQVVEKLQARLAANPDPKKLLKYLKKLSVLPITVDILVETGVGKTVNSFRKHEQVGNFARDLVAQWKKLVPVERNNEAEDQDFEKSNSRKRPRDVPQQEEEAEGNYQESWQASGSQPYSPEHRQKKHRKLPELERPHKVAHGHERRDERKRCHKVSPPYSSDPESSDYGHVQSPPPSSPHQMYTDLSRSPEMDQEPIVSHPKPGKVHSNTFQDRLGVSHLGEHQGKGAVSQNKPHKSSHKEKRPVDARGDEKSSVMGREKSHKASSKEESRRLLSEDSAKEKLPSSVVKKEKDREGNSLKKKLSPALDVASDNHFKKPKHKDSEKIKSDKNKQSVDSVDSGRGTGDPLPRAKDKVPNNLKAQEGKVRTNSDRKSPGSLPKVEEMDMDDEFEQPTMSFESYLSYDQPRKKKKKVVKTSGTALGEKGLKKKDSKSTSKNLNSAQKLPKANENKSDKLQPAGAEPTRPRKVPTDVLPALPDIPLPAIQTNYRPLPSLELISSFQPKRKAFSSPQEEEEAGFTGRRMNSKMQVYSGSKCAYLPFEVGGVPYSVLEPVLERCTPDQLYRIEECNHVLIEETDQLWKVHCHRDFKEERPEEYESWREMYLRLQDAREQRLRLLTNNIRSAHANKPKGRQAKMAFVNSVAKPPRDVRRRQEKFGTGGAAVPEKVRIKPAPYTTGSSHVPASNSSSSFHSSPEELAYEGPSTSSAHLAPVASSSVSYDPRKPAVKKIAPMMAKTIKAFKNRFSRR
As to B3, the binding result is given as “no binding”.

B4: Elongin A internal deletion mutant Δ401-440 (other)
chain: MAAESALQVVEKLQARLAANPDPKKLLKYLKKLSVLPITVDILVETGVGKTVNSFRKHEQVGNFARDLVAQWKKLVPVERNNEAEDQDFEKSNSRKRPRDVPQQEEEAEGNYQESWQASGSQPYSPEHRQKKHRKLPELERPHKVAHGHERRDERKRCHKVSPPYSSDPESSDYGHVQSPPPSSPHQMYTDLSRSPEMDQEPIVSHPKPGKVHSNTFQDRLGVSHLGEHQGKGAVSQNKPHKSSHKEKRPVDARGDEKSSVMGREKSHKASSKEESRRLLSEDSAKEKLPSSVVKKEKDREGNSLKKKLSPALDVASDNHFKKPKHKDSEKIKSDKNKQSVDSVDSGRGTGDPLPRAKDKVPNNLKAQEGKVRTNSDRKSPGSLPKVEEMDMDDEFEQPTSKNLNSAQKLPKANENKSDKLQPAGAEPTRPRKVPTDVLPALPDIPLPAIQTNYRPLPSLELISSFQPKRKAFSSPQEEEEAGFTGRRMNSKMQVYSGSKCAYLPKMMTLHQQCIRVLKNNIDSIFEVGGVPYSVLEPVLERCTPDQLYRIEECNHVLIEETDQLWKVHCHRDFKEERPEEYESWREMYLRLQDAREQRLRLLTNNIRSAHANKPKGRQAKMAFVNSVAKPPRDVRRRQEKFGTGGAAVPEKVRIKPAPYTTGSSHVPASNSSSSFHSSPEELAYEGPSTSSAHLAPVASSSVSYDPRKPAVKKIAPMMAKTIKAFKNRFSRR
As for B4, the binding result is reported as “binds”.

B5: Elongin A internal deletion mutant Δ441-480 (other)
chain: MAAESALQVVEKLQARLAANPDPKKLLKYLKKLSVLPITVDILVETGVGKTVNSFRKHEQVGNFARDLVAQWKKLVPVERNNEAEDQDFEKSNSRKRPRDVPQQEEEAEGNYQESWQASGSQPYSPEHRQKKHRKLPELERPHKVAHGHERRDERKRCHKVSPPYSSDPESSDYGHVQSPPPSSPHQMYTDLSRSPEMDQEPIVSHPKPGKVHSNTFQDRLGVSHLGEHQGKGAVSQNKPHKSSHKEKRPVDARGDEKSSVMGREKSHKASSKEESRRLLSEDSAKEKLPSSVVKKEKDREGNSLKKKLSPALDVASDNHFKKPKHKDSEKIKSDKNKQSVDSVDSGRGTGDPLPRAKDKVPNNLKAQEGKVRTNSDRKSPGSLPKVEEMDMDDEFEQPTMSFESYLSYDQPRKKKKKVVKTSGTALGEKGLKKKDSKSTALPDIPLPAIQTNYRPLPSLELISSFQPKRKAFSSPQEEEEAGFTGRRMNSKMQVYSGSKCAYLPKMMTLHQQCIRVLKNNIDSIFEVGGVPYSVLEPVLERCTPDQLYRIEECNHVLIEETDQLWKVHCHRDFKEERPEEYESWREMYLRLQDAREQRLRLLTNNIRSAHANKPKGRQAKMAFVNSVAKPPRDVRRRQEKFGTGGAAVPEKVRIKPAPYTTGSSHVPASNSSSSFHSSPEELAYEGPSTSSAHLAPVASSSVSYDPRKPAVKKIAPMMAKTIKAFKNRFSRR
Turning to B5, the binding result is reported as “binds”.

B6: Elongin A deletion mutant 1-630 (other)
chain: MAAESALQVVEKLQARLAANPDPKKLLKYLKKLSVLPITVDILVETGVGKTVNSFRKHEQVGNFARDLVAQWKKLVPVERNNEAEDQDFEKSNSRKRPRDVPQQEEEAEGNYQESWQASGSQPYSPEHRQKKHRKLPELERPHKVAHGHERRDERKRCHKVSPPYSSDPESSDYGHVQSPPPSSPHQMYTDLSRSPEMDQEPIVSHPKPGKVHSNTFQDRLGVSHLGEHQGKGAVSQNKPHKSSHKEKRPVDARGDEKSSVMGREKSHKASSKEESRRLLSEDSAKEKLPSSVVKKEKDREGNSLKKKLSPALDVASDNHFKKPKHKDSEKIKSDKNKQSVDSVDSGRGTGDPLPRAKDKVPNNLKAQEGKVRTNSDRKSPGSLPKVEEMDMDDEFEQPTMSFESYLSYDQPRKKKKKVVKTSGTALGEKGLKKKDSKSTSKNLNSAQKLPKANENKSDKLQPAGAEPTRPRKVPTDVLPALPDIPLPAIQTNYRPLPSLELISSFQPKRKAFSSPQEEEEAGFTGRRMNSKMQVYSGSKCAYLPKMMTLHQQCIRVLKNNIDSIFEVGGVPYSVLEPVLERCTPDQLYRIEECNHVLIEETDQLWKVHCHRDFKEERPEEYESWREMYL
Turning to B6, the binding result was “binds”.

Source of the values: US6084068, “Elongin A and C functional domains” (Oklahoma Medical Research Foundation, dated 2000).
